Measured values as given in the Human Domainome abundance scans (Beltran et al. 2025).
± gives the uncertainty stated by the source.

B1: DNA topoisomerase 3-alpha, residues 812 to 851; numbered along this chain, Q13472 (parent)
chain: TCNCGQEAVLLTVRKEGPNRGRQFFKCNGGSCNFFLWADS

Variants of: B1
Assay: abundance fitness (aPCA) (normalised: wild type 0, dead -1); higher = more abundant; growth selection in yeast, the domain comes from the species named
Conditions: Homo sapiens

Row | Variant | abundance fitness
1 | G17W | -0.684 ± 0.26
2 | G17A | -0.676 ± 0.17
3 | G17I | -0.263 ± 0.16
4 | G17L | -0.606 ± 0.071
5 | G17Q | -0.681 ± 0.11
6 | G17V | -0.675 ± 0.14
7 | G17P | -0.89 ± 0.46
8 | G17R | -0.665 ± 0.14
9 | V9S | -0.194 ± 0.091
10 | V9L | 0.12 ± 0.26
11 | V9R | -0.154 ± 0.063
12 | V9P | -0.227 ± 0.099
13 | V9Q | -0.04 ± 0.067
14 | V9C | -0.226 ± 0.11
15 | V9G | -0.355 ± 0.046
16 | R20C | -0.549 ± 0.32
17 | R20E | -0.039 ± 0.076
18 | R20D | 0.22 ± 0.2
19 | R20Y | 0.007 ± 0.099
20 | R20W | -0.271 ± 0.086
21 | R20G | -0.171 ± 0.072
22 | R20H | 0.199 ± 0.27
23 | R20P | -0.227 ± 0.12
24 | R20S | -0.167 ± 0.049

Row | Variant | abundance fitness
25 | G5H | -0.419 ± 0.14
26 | G5R | -0.467 ± 0.11
27 | G5Q | -0.259 ± 0.073
28 | G5A | -0.437 ± 0.22
29 | G5M | -0.267 ± 0.095
30 | G5V | -0.714 ± 0.098
31 | G5L | -0.666 ± 0.059
32 | G5S | -0.377 ± 0.22
33 | G5K | -0.263 ± 0.11
34 | G5C | -0.484 ± 0.063
35 | R22K | 0.007 ± 0.095
36 | R22N | -0.459 ± 0.36
37 | R22S | -0.513 ± 0.086
38 | R22G | -0.565 ± 0.081
39 | R22Q | -0.623 ± 0.13
40 | R22W | -0.629 ± 0.077
41 | R22T | -0.438 ± 0.17
42 | R22M | -0.677 ± 0.2
43 | R22L | -0.322 ± 0.079
44 | R22A | -0.401 ± 0.13
45 | D39P | -0.171 ± 0.17
46 | D39C | -0.205 ± 0.14
47 | D39M | -1.03 ± 0.22
48 | D39L | -0.93 ± 0.15

Row | Variant | abundance fitness
49 | D39R | -0.838 ± 0.49
50 | D39G | -0.227 ± 0.083
51 | D39E | -0.105 ± 0.088
52 | D39Q | -0.63 ± 0.42
53 | N28W | 0.079 ± 0.2
54 | N28R | 0.131 ± 0.12
55 | N28L | -0.195 ± 0.18
56 | N28A | 0.075 ± 0.069
57 | N28I | 0.137 ± 0.3
58 | N28V | -0.136 ± 0.078
59 | N28T | -0.043 ± 0.13
60 | N28S | -0.09 ± 0.047
61 | N19E | -0.222 ± 0.19
62 | N19L | -0.195 ± 0.073
63 | N19W | -0.454 ± 0.13
64 | N19T | -0.075 ± 0.071
65 | N19D | 0.069 ± 0.046
66 | N19S | -0.168 ± 0.097
67 | N19A | -0.509 ± 0.097
68 | N19M | 0.085 ± 0.14
69 | N19G | -0.537 ± 0.14
70 | N19H | 0.157 ± 0.1
71 | N19R | -0.777 ± 0.49
72 | N19V | -0.54 ± 0.1

Row | Variant | abundance fitness
73 | E16K | -0.071 ± 0.1
74 | E16C | -0.342 ± 0.087
75 | E16R | -0.165 ± 0.079
76 | E16G | -0.266 ± 0.069
77 | E16Y | -0.421 ± 0.17
78 | E16P | -0.196 ± 0.15
79 | E16N | -0.018 ± 0.054
80 | E16L | -0.246 ± 0.058
81 | E16V | -0.5 ± 0.34
82 | E16A | -0.185 ± 0.063
83 | E16S | -0.344 ± 0.33
84 | E16T | -0.13 ± 0.087
85 | G30Q | -0.265 ± 0.071
86 | G30V | -0.574 ± 0.12
87 | G30A | -0.381 ± 0.2
88 | G30S | -0.304 ± 0.069
89 | G30W | -0.287 ± 0.36
90 | T12Y | -0.356 ± 0.18
91 | T12W | -0.721 ± 0.2
92 | T12R | -0.437 ± 0.086
93 | T12C | -0.39 ± 0.2
94 | T12E | -0.722 ± 0.22
95 | T12P | -0.528 ± 0.11
96 | T12S | -0.475 ± 0.23

Row | Variant | abundance fitness
97 | T12V | -0.47 ± 0.083
98 | T12Q | -0.24 ± 0.32
99 | T12K | -0.347 ± 0.057
100 | T12A | -0.59 ± 0.3
101 | T12H | -0.383 ± 0.2
102 | K26C | -0.13 ± 0.17
103 | K26V | -0.266 ± 0.063
104 | K26R | 0.025 ± 0.12
105 | K26S | -0.011 ± 0.11
106 | K26G | -0.004 ± 0.056
107 | K26M | -0.232 ± 0.12
108 | K26A | -0.001 ± 0.095
109 | K26L | -0.318 ± 0.096
110 | T1W | -0.858 ± 0.47
111 | T1Q | -0.24 ± 0.19
112 | N33L | -0.892 ± 0.37
113 | N33A | -0.12 ± 0.057
114 | N33S | -0.057 ± 0.062
115 | N33V | -0.7 ± 0.11
116 | N33T | -0.075 ± 0.079
117 | N33W | -0.572 ± 0.11
118 | N33G | -0.072 ± 0.13
119 | F35W | -0.246 ± 0.11
120 | F35V | -0.352 ± 0.14

Row | Variant | abundance fitness
121 | F35E | -0.447 ± 0.16
122 | F35Q | -0.241 ± 0.09
123 | F35K | -0.014 ± 0.11
124 | F35L | -0.444 ± 0.076
125 | C27G | -1.19 ± 0.41
126 | C27H | -0.753 ± 0.35
127 | C27V | -1.09 ± 0.25
128 | C27T | -0.86 ± 0.25
129 | C27R | -1 ± 0.36
130 | C27E | -0.53 ± 0.38
131 | C27A | -0.44 ± 0.15
132 | C27M | -0.789 ± 0.25
133 | C27L | -0.984 ± 0.19
134 | A38D | -0.371 ± 0.21
135 | A38V | -0.295 ± 0.13
136 | A38P | -0.659 ± 0.13
137 | V13S | -0.234 ± 0.14
138 | Q23G | -0.21 ± 0.053
139 | Q23T | -0.219 ± 0.19
140 | Q23H | 0.03 ± 0.14
141 | Q23D | 0.021 ± 0.28
142 | Q23W | -0.574 ± 0.14
143 | Q6G | -0.182 ± 0.12
144 | Q6R | 0.038 ± 0.22

Row | Variant | abundance fitness
145 | Q6A | 0.229 ± 0.12
146 | G21Q | -0.614 ± 0.14
147 | G21N | -0.208 ± 0.11
148 | G21A | -0.367 ± 0.083
149 | G21R | -0.643 ± 0.13
150 | G21S | -0.469 ± 0.11
151 | G21I | -0.787 ± 0.28
152 | G21W | -0.89 ± 0.46
153 | G21V | -0.763 ± 0.11
154 | C2F | -0.827 ± 0.38
155 | C2G | -0.601 ± 0.36
156 | C2S | -0.593 ± 0.24
157 | C4V | -1.09 ± 0.19
158 | C4G | -1.3 ± 0.26
159 | C4R | -0.907 ± 0.26
160 | C4L | -1.24 ± 0.41
161 | E7S | -0.233 ± 0.15
162 | E7P | -0.023 ± 0.088
163 | E7H | -0.142 ± 0.1
164 | E7R | -0.18 ± 0.093
165 | E7G | -0.221 ± 0.051
166 | S31G | -0.071 ± 0.068
167 | S31C | -0.239 ± 0.076
